The labels stand for the following.
B4: Mis12–Nnf1 complex (full-length Mis12 and full-length Nnf1) (complex, S. pombe)
chain 1: MLVELLEFTPLSFIDDVINITNQLLYKGVNGVDKAFSQTRFAKKAPQEIEEGLHKFEVLFESVVDRYYDGFEVYTLRNIFSYPPELKGYMRTFGKDVDYSITTEQDAAMDQAIQEAAEKLVVKMQLRRDLRMRLSRKREKKTEIEKHLERISFLNKVPENWQVTLPETTDFLLDQLGNLQHAVKRVVEASPTVHSREVDERITYLEKGYERLSNPIDQQKDFWSHHLSKLESTANTETANNIHKLLLSSEKDVGHTDEP
chain 2: MTSRKEQLDAFLSRTLSETIAHIPLEKFAQCFPSMKKGKVIAVIHQQLIEFFEKSCKQEYANLIKERDLNKKLDMLDECIHDAEFRKLHGESEVDISNKQPQEILKAHLYSHKRELLDKLNQDLLDIDKENEGLSTQIAGEEKATEDCISRMQSLIQKLEKTVYGMNEKNLAKEAHDTLNDLLPYIQNPSSTWTNALNEQGNIER

Square brackets hold non-standard residues; d marks the D form. Ends that are not written are not given here. pT = C[C@@H](OP(=O)(O)O)[C@H](N)C(=O)O

Experiment [1] addresses B4. The experiment can be described thus: ITC. For orientation: Isothermal titration calorimetry measures the heat released or taken up as one component is titrated into another.
The target of experiment [2] is T1, Mis12, full length (subunit of the Mis12–Nnf1 complex) (S. pombe, UniProt Q9Y738 1-259).
T1 sequence (looked up): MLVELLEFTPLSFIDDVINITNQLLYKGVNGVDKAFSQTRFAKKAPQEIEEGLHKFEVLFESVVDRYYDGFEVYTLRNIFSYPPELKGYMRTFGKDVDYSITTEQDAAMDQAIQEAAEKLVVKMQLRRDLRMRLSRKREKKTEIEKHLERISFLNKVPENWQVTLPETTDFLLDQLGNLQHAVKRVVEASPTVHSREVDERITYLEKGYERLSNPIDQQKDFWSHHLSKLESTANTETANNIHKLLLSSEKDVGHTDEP
The experiment can be described thus: SEC-MALS. Background: Size exclusion chromatography separates by hydrodynamic size, large species first.

Experiment [3] has as its target B4. The experiment can be described thus: SEC-MALS.
Experiment [4] deals with T2, Dsn1^DD–Nsl1 subcomplex (Dsn1 S68D S77D) (S. pombe, UniProt Q9UUB5 1-329; Q9P6M3 1-210, S68D | S77D).
T2 sequence (looked up) 1: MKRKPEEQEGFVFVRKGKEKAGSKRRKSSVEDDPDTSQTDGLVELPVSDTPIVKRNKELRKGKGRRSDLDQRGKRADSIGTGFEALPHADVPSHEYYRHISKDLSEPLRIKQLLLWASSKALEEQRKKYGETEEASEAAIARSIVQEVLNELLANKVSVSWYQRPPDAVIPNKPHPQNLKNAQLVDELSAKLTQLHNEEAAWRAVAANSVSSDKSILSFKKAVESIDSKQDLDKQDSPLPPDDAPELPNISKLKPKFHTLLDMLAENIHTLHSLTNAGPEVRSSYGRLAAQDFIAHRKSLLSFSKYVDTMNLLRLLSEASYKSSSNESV
T2 sequence (looked up) 2: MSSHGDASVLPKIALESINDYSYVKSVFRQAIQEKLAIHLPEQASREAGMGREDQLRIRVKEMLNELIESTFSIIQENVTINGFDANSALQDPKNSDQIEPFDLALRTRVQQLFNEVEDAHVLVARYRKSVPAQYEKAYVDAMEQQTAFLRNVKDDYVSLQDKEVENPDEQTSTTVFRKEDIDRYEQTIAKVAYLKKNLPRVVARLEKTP
The experiment can be described thus: SEC-MALS.

Experiment [5] deals with T3, GST-Cnp3(fl), full-length Cnp3 (S. pombe, UniProt Q9USR9 1-643).
T3 sequence (looked up): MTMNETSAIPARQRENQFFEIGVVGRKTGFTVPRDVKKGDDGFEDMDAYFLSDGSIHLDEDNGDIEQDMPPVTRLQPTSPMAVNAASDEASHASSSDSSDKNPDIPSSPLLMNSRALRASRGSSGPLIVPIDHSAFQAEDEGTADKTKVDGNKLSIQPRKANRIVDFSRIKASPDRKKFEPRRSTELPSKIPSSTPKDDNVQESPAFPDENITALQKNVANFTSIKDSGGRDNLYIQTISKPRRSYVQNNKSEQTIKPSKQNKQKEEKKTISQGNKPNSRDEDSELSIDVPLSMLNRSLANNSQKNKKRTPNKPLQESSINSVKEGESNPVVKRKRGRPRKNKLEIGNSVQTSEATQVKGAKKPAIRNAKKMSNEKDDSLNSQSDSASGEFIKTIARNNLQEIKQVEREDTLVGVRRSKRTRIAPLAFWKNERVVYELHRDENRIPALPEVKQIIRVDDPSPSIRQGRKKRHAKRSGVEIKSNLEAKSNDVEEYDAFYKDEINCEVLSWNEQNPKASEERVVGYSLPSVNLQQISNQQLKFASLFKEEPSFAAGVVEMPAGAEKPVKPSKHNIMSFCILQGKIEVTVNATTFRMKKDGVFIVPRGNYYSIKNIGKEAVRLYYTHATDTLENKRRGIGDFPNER
Put plainly: pull-down.

For experiment [6], the target named is B4. Put plainly: pull-down.

B1: Cnp3(26–52) peptide (peptide, UniProt Q9USR9 26-52, looked up)
peptide: RKTGFTVPRDVKKGDDGFEDMDAYFLS
The term Kd denotes the equilibrium constant for the complex coming apart. Low values mean higher affinity, high ones lower affinity. As to B1, the Kd in experiment [1] was 12.6 µM. In other words, the double-digit micromolar range.

B2: Nnf1, full length, untagged (subunit of the Mis12–Nnf1 complex) (natural protein, S. pombe, UniProt Q09858 1-205, looked up)
chain: MTSRKEQLDAFLSRTLSETIAHIPLEKFAQCFPSMKKGKVIAVIHQQLIEFFEKSCKQEYANLIKERDLNKKLDMLDECIHDAEFRKLHGESEVDISNKQPQEILKAHLYSHKRELLDKLNQDLLDIDKENEGLSTQIAGEEKATEDCISRMQSLIQKLEKTVYGMNEKNLAKEAHDTLNDLLPYIQNPSSTWTNALNEQGNIER
Usually stoichiometry N stands for a count of units in the complex or per binding partner. For B2, the “stoichiometry N” value in experiment [2] turned out to be 1.

B3: Dsn1–Nsl1 subcomplex (complex, S. pombe)
chain 1: MKRKPEEQEGFVFVRKGKEKAGSKRRKSSVEDDPDTSQTDGLVELPVSDTPIVKRNKELRKGKGRRSSLDQRGKRASSIGTGFEALPHADVPSHEYYRHISKDLSEPLRIKQLLLWASSKALEEQRKKYGETEEASEAAIARSIVQEVLNELLANKVSVSWYQRPPDAVIPNKPHPQNLKNAQLVDELSAKLTQLHNEEAAWRAVAANSVSSDKSILSFKKAVESIDSKQDLDKQDSPLPPDDAPELPNISKLKPKFHTLLDMLAENIHTLHSLTNAGPEVRSSYGRLAAQDFIAHRKSLLSFSKYVDTMNLLRLLSEASYKSSSNESV
chain 2: MSSHGDASVLPKIALESINDYSYVKSVFRQAIQEKLAIHLPEQASREAGMGREDQLRIRVKEMLNELIESTFSIIQENVTINGFDANSALQDPKNSDQIEPFDLALRTRVQQLFNEVEDAHVLVARYRKSVPAQYEKAYVDAMEQQTAFLRNVKDDYVSLQDKEVENPDEQTSTTVFRKEDIDRYEQTIAKVAYLKKNLPRVVARLEKTP
Take B3: the “stoichiometry N” value in experiment [3] was determined as 1.
B4: the binding result in experiment [4] and in experiment [5] was “binds” in each case.

B5: Cnp3(26–52)^pT28 peptide (peptide, UniProt Q9USR9 26-52, looked up)
peptide: RK[pT]GFTVPRDVKKGDDGFEDMDAYFLS
As to B5, the affinity in experiment [1], expressed as Kd, was 92 µM.

B6: GST-Cnp3(1–60)^WT (domain or fragment, S. pombe, UniProt Q9USR9 1-60, looked up)
chain: MTMNETSAIPARQRENQFFEIGVVGRKTGFTVPRDVKKGDDGFEDMDAYFLSDGSIHLDE
As for B6, the binding result in experiment [6] is “binds”.

B7: GST-Cnp3(26–50) (domain or fragment, S. pombe, UniProt Q9USR9 26-50, looked up)
chain: RKTGFTVPRDVKKGDDGFEDMDAYF
In the case of B7, the binding result in experiment [6] is recorded as “binds”.

B8: Mis12–Nnf1 complex with Mis12 Y67A (complex, S. pombe)
chain 1: MLVELLEFTPLSFIDDVINITNQLLYKGVNGVDKAFSQTRFAKKAPQEIEEGLHKFEVLFESVVDRAYDGFEVYTLRNIFSYPPELKGYMRTFGKDVDYSITTEQDAAMDQAIQEAAEKLVVKMQLRRDLRMRLSRKREKKTEIEKHLERISFLNKVPENWQVTLPETTDFLLDQLGNLQHAVKRVVEASPTVHSREVDERITYLEKGYERLSNPIDQQKDFWSHHLSKLESTANTETANNIHKLLLSSEKDVGHTDEP
chain 2: MTSRKEQLDAFLSRTLSETIAHIPLEKFAQCFPSMKKGKVIAVIHQQLIEFFEKSCKQEYANLIKERDLNKKLDMLDECIHDAEFRKLHGESEVDISNKQPQEILKAHLYSHKRELLDKLNQDLLDIDKENEGLSTQIAGEEKATEDCISRMQSLIQKLEKTVYGMNEKNLAKEAHDTLNDLLPYIQNPSSTWTNALNEQGNIER
As to B8, in experiment [5], the binding result is “binds”.

B9: Mis12–Nnf1 complex with Mis12 R66A (complex, S. pombe)
chain 1: MLVELLEFTPLSFIDDVINITNQLLYKGVNGVDKAFSQTRFAKKAPQEIEEGLHKFEVLFESVVDAYYDGFEVYTLRNIFSYPPELKGYMRTFGKDVDYSITTEQDAAMDQAIQEAAEKLVVKMQLRRDLRMRLSRKREKKTEIEKHLERISFLNKVPENWQVTLPETTDFLLDQLGNLQHAVKRVVEASPTVHSREVDERITYLEKGYERLSNPIDQQKDFWSHHLSKLESTANTETANNIHKLLLSSEKDVGHTDEP
chain 2: MTSRKEQLDAFLSRTLSETIAHIPLEKFAQCFPSMKKGKVIAVIHQQLIEFFEKSCKQEYANLIKERDLNKKLDMLDECIHDAEFRKLHGESEVDISNKQPQEILKAHLYSHKRELLDKLNQDLLDIDKENEGLSTQIAGEEKATEDCISRMQSLIQKLEKTVYGMNEKNLAKEAHDTLNDLLPYIQNPSSTWTNALNEQGNIER
Take B9: the binding result in experiment [5] is reported as “binds”.

B10: GST-Cnp3(1–155)^T28A (domain or fragment, S. pombe, UniProt Q9USR9 1-155, looked up)
chain: MTMNETSAIPARQRENQFFEIGVVGRKAGFTVPRDVKKGDDGFEDMDAYFLSDGSIHLDEDNGDIEQDMPPVTRLQPTSPMAVNAASDEASHASSSDSSDKNPDIPSSPLLMNSRALRASRGSSGPLIVPIDHSAFQAEDEGTADKTKVDGNKLS
Turning to B10, the binding result in experiment [6] is recorded as “binds”.

B11: GST-Cnp3(1–155) (domain or fragment, S. pombe, UniProt Q9USR9 1-155, looked up)
chain: MTMNETSAIPARQRENQFFEIGVVGRKTGFTVPRDVKKGDDGFEDMDAYFLSDGSIHLDEDNGDIEQDMPPVTRLQPTSPMAVNAASDEASHASSSDSSDKNPDIPSSPLLMNSRALRASRGSSGPLIVPIDHSAFQAEDEGTADKTKVDGNKLS
For the molecule B11, in experiment [6], the binding result was “binds”.

(Values after article PMC5740674 (Proceedings of the National Academy of Sciences of the …, 2017).)
